In patent publication US12060408B2, “Screening assays, modulators and modulation of activation of Receptor for Advanced Glycation End-products (RAGE)” (Monash University, priority 2017, dated 2024):
Ends that are not written are not given here.

system: primary murine aortic endothelial cells (PMAEC); experiment: Expression of pro-inflammatory markers by real-time RT-PCR in primary murine aortic endothelial cells; type: cell-based, mouse; conditions: PMAEC from C57bl6 mice
Protocol: Primary aortic endothelial cells (PMAEC) were isolated from the aortae of (wild-type) C57bl6 mice and AGER KO mice and cultured in Dulbecco's modified Eagle's medium (DMEM)/F12 endothelial cell growth supplement (ECGS) supplemented media. Chinese Hamster Ovary (CHO) cells were cultured using F12 media (10% FCS with 2 mM glutamine). Human microvascular endothelial cells (HMEC) were cultured in MCDB 131 medium (10% FCS with 10 mM glutamine, EGF and hydrocortisone).
Cellular Expression of Pro-Inflammatory Markers and Mediators by Quantitative Real-Time PCR
After 2 hours of exposure to Ang II (1 μM) or the RAGE ligand, S100A8/A9 (5 ng/ml) cells were placed in Trizol, mRNA extracted and cDNA synthesized. Changes in the gene expression of the NFκB subunit, p65 (RelA) or NFκB-activated target genes (e.g ICAM-1, VCAM-1) were estimated by quantitative real-time RT-PCR, performed using the TaqMan system based on real-time detection of accumulated fluorescence (ABI Prism 7700, Perkin-Elmer Inc, PE Biosystems, Foster City, CA, USA). Gene expression was normalized to 18S mRNA and reported as fold change compared to the level of expression in untreated control mice/cells, which were given an arbitrary value of 1.
Selective Silencing of Gene Expression Using siRNA
PMAEC from C57b/6 mice were also transfected with siRNA to RAGE (2 nM) Ambion, ID:s62119), p65 (RelA) (10 nM; Ambion, ID:s72857), MyD88 (10 nM; Ambion. ID:s201719), PKCζ (10 nM; Ambion, ID:s71716), IQGAP-1, Ambion, ID:s78119), Diaph1 (10 nM; sense5′-[…], antisense 3′-[…]; Invitrogen) or scrambled control #1 (2 nM or 10 nM; Ambion) using Lipofectamine RNAiMAX (Invitrogen) as per manufacturer's instructions. Cells were allowed to recover in media containing 10% FBS for 16 hours prior to treatment with 1 μM Ang II or 5 ng/ml of the RAGE ligand, S100A8/A9, as a signalling control.

Substance	canonical and non-canonical signalling downstream of NFκB (CXCL2, CXCL12)
TNFα	selectively induce canonical signalling

target: T1, RAGE (Mus musculus, UniProt Q62151); experiment: Ang II-induced ICAM-1 gene expression in murine SVEC; type: cell-based; conditions: murine SVEC endogenously replete in RAGE; transfected constructs; 1 μM Ang II; FIG. 12A, 12B, 12D
T1 construct: in murine SVEC that are endogenously replete in RAGE expression; host or cells: Svec4-10 mouse endothelial cells
T1 sequence (Q62151 23-402): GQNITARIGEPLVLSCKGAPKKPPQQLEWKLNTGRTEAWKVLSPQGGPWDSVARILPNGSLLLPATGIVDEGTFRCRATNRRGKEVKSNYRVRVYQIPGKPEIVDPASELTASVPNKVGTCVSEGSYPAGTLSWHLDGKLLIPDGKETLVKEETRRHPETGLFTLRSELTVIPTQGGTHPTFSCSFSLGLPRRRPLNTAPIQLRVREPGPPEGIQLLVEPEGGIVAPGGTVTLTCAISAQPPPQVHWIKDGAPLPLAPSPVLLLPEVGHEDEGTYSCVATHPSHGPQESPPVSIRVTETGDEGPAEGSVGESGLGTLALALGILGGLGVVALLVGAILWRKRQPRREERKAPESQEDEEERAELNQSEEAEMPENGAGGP
Protocol: To explore the potential for RAGE constructs to inhibit transactivation of endogenous RAGE, additional experiments were conducted in immortalized mouse endothelial cells (Svec4-10, ATCC) cultured in 10% FBS/DMEM with 25 mM glucose were used. SVEC were transfected with truncated RAGE constructs using Lipofectamine 2000 (Invitrogen) as per manufacturer's instructions, or treated with RAGE oligopeptides (280 μM). Cells were allowed to recover in media containing 10% FBS for 16 hours prior to treatment with 1 μM Ang II.

Substance	induction of ICAM-1 gene expression by Ang II
E384A-RAGE370-390: alanine mutant of RAGE370-390 (GEERKAPENQEEEEARAELNQ; cytosolic tail peptide; UniProt Q15109 370-390, looked up, variant E384A)	continue to inhibit
Q379A-RAGE370-390: glutamine-to-alanine mutant of RAGE370-390 (GEERKAPENAEEEEERAELNQ; cytosolic tail peptide; UniProt Q15109 370-390, looked up, variant Q379A)	lost
Q379K-RAGE370-390: glutamine-to-lysine mutant of RAGE370-390 (GEERKAPENKEEEEERAELNQ; cytoplasmic region peptide; UniProt Q15109 370-390, looked up, variant Q379K)	retain the greatest inhibitory effect
Q390A-RAGE370-390: glutamine-to-alanine mutant of RAGE370-390 (GEERKAPENQEEEEERAELNA; cytoplasmic region peptide; UniProt Q15109 370-390, looked up, variant Q390A)	lost
Q390K-RAGE370-390: glutamine-to-lysine mutant of RAGE370-390 (GEERKAPENQEEEEERAELNK; cytosolic tail peptide; UniProt Q15109 370-390, looked up, variant Q390K)	retain the greatest inhibitory effect
RAGE22-404: full length wild-type RAGE construct	does not affect
m-Cherry-RAGE370-395: C-truncated S391X-RAGE mutant fused to mCherry (GEERKAPENQEEEEERAELNQSEEPE; also: mCherry fusion, not in chain; UniProt Q15109 370-395, looked up, fragment)	prevents

Next, values leading:

induction of ICAM-1 gene expression by Ang II	Substance
continue to inhibit	E380A-RAGE370-390: alanine mutant of RAGE370-390 (GEERKAPENQAEEEERAELNQ; cytosolic tail peptide; UniProt Q15109 370-390, looked up, variant E380A)
continue to inhibit	E382A-RAGE370-390: alanine mutant of RAGE370-390 (GEERKAPENQEEAEERAELNQ; cytosolic tail peptide; UniProt Q15109 370-390, looked up, variant E382A)
able to prevent	S391A-RAGE22-404: full length RAGE construct with S391 mutated to alanine
able to prevent	mCherry-S391A-RAGE362-404: N-truncated mCherry-RAGE cytosolic tail construct with S391A (LWQRRQRRGEERKAPENQEEEEERAELNQAEEPEAGESSTGGP; also: mCherry fusion; UniProt Q15109 362-404, looked up, fragment S391A)
